Values of other authors in article PMC3877210.
pKd: −log10 of the molar value.

Experiments:
[1] = target: integrin β3 cytoplasmic tail (Homo sapiens) (UniProt P05106); assay: SPR
[2] = target: integrin β2 cytoplasmic tail (Homo sapiens) (UniProt P05107); assay: SPR
[3] = target: integrin β1 cytoplasmic tail (Homo sapiens) (UniProt P05556); assay: pulldown
[4] = target: integrin β3 cytoplasmic tail (Homo sapiens) (UniProt P05106); assay: NMR

Sequence of UniProt P05106 (P05106 742-788): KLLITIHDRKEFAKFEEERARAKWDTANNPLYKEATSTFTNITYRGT
Sequence of UniProt P05107 (P05107 724-769): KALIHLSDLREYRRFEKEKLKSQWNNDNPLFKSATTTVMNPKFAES
Sequence of UniProt P05556 (P05556 752-798): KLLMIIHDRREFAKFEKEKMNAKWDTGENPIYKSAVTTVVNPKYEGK

pKd [1]	pKd [2]	pKd [3]	pKd [4]	Substance
7.04	7.90	7.17		talin F2-F3 F2-F3 (from UniProt Q9Y490)
			3.56	talin F3 F3 (from UniProt Q9Y490)
